Results reported in patent publication US20250304662A1 (published 2025).
Residue numbers refer to the chain shown, from its start. Read-outs that look alike come from different tables or passages of the source.

Key:
Kp1 1C01 = assay: BLI
Kp1 2G02 = assay: BLI
Kp1 1A02 = assay: BLI
Ec1 H9 = assay: BLI
Kp1 2E02 = assay: BLI
Kp1 1B03 = assay: BLI
Kp1 2H07 = assay: BLI
Kp1 2E08 = assay: BLI
Kp1 2D07 = assay: BLI
Ec1 C12 = assay: BLI
Ec FmlHLD = target: T1, Ec FmlHLD; assay: ELISA
T1 chain: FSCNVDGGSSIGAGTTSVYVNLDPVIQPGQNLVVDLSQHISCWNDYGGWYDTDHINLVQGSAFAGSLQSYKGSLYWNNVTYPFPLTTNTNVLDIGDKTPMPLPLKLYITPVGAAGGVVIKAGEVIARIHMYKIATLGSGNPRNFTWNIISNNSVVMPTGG

Ec FimHLD = assay: ELISA
Kp FimHLD = target: T2, Kp FimHLD; assay: ELISA
T2 chain: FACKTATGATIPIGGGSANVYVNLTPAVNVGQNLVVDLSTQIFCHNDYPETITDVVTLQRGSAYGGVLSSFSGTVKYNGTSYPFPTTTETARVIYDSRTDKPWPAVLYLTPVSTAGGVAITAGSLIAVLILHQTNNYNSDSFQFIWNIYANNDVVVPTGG

FimGNTEH [1] = target: T3, FimGNTEH (E. coli, UniProt P08190 24-37); assay: BLI
T3 sequence (P08190 whole entry, looked up): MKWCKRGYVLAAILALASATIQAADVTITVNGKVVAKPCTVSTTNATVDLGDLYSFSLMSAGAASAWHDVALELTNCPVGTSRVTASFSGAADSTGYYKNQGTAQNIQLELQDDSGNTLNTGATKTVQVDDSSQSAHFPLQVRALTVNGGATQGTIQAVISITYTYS

FimGnteH [2] = target: T4, FimGnteH (E. coli, UniProt P08190 24-37); assay: BLI
T4 sequence (P08190 whole entry, looked up): T3 sequence (P08190 whole entry, looked up)

[3] = target: T5, E. coli FimH lectin domain truncate (UT189) (E. coli (UT189)); assay: BLI
T5 chain: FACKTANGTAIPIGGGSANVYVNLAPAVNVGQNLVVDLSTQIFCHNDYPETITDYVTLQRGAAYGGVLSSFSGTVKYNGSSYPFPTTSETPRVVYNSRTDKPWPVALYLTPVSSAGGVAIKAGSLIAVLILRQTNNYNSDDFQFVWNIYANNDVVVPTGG

[4] = target: T5, E. coli FimH lectin domain truncate …; assay: BLI
[5] = target: T5, E. coli FimH lectin domain truncate …; assay: BLI

B1: FimLD (other)
chain: T5 chain
Kp1 1C01
  Kd: 3.4 nM
Kp1 2G02
  koff: 1.3e-05 s⁻¹
Kp1 1A02
  Kd: 0.7 nM
Ec1 H9
  Kd: 0.2 nM
Kp1 2E02
  Kd: 0.4 nM
Kp1 1B03
  Kd: 4.9 nM
Kp1 2H07
  Kd: 1 nM
Kp1 2E08
  Kd: 1 nM
Kp1 2D07
  Kd: 1.5 nM
Ec1 C12
  Kd: 2.7 nM

B2: Kp 2G02 (antibody, V domains shown)
VH: EVQLQQSGPVLVKPGPSVKISCKASGFTFTDYYMHWVKQSHGKSLEWIGLVYPYNGGTYYNQKFKGKATLTVDTSSSTAYMELNSLTSEDSAVYYCVRLGNGSSNEWYFDVWGTGTTVTVSS
VL: QIVLTQSPALMAASPGEKVTITCSVSSSISSYNLHWYQQKSETSPKPWIYGTSNLASGVPVRFSGSGSGTSYSLTISSMEAEDAATYYCQQWRTYPWTFGGGTKLEIKR
Ec FmlHLD
  EC50: 0.0144 µg/mL
Ec FimHLD
  EC50: 0.015 µg/mL
Kp FimHLD
  EC50: 0.0105 µg/mL

B3: Kp 1C01 (antibody, V domains shown)
VH: EVQLQQPGPVLVKPGPSVKISCKASGFTFTDYYMHWVKQSHGKSLEWIGLVSPYNGGTFYNQKFKGKATLTVDTSSSTAYMELNSLTSEDSAVYYCARVGNSYVHYAMDYWGQGTSVTVSS
VL: B2 VL with Y32S, R93S, T94N, W97Y
Ec FmlHLD
  EC50: 0.886 µg/mL
Ec FimHLD
  EC50: 0.0146 µg/mL
Kp FimHLD
  EC50: 0.0125 µg/mL

B4: Ec1 F7 (antibody, V domains shown)
VH: EVQLQQPGPVLVKPGPSVKISCKASGFTFTDYFIHWVKQSHGKSLEWIGLVSPYNGGTYYNQQFKGKATLTVDTSSSTAYMDLNSLTSEDSAVYYCTRLLRGYWYFDVWGTGTTVTVSS
VL: B2 VL with S30G, Y32S, R93S, W97Y
Ec FmlHLD
  EC50: 0.0083 µg/mL
Ec FimHLD
  EC50: 0.0109 µg/mL
Kp FimHLD
  EC50: 0.0078 µg/mL

B5: Kp 1A09 (antibody, V domains shown)
VH: EVQLQQPGAELVKPGASVKLSCKASGYTFTSYWMHWVKQRPGQGLEWIGLIHPNSGSTYYNEKFKNKATLTVDKSSSTAYMQLSSLTSEDSAVYYCARWDDSYWYFKVWGTGTTVTVSS
VL: QIVLTQSPAILSASPGEKVTMTCRASSSVSYMHWYQQKPGSSPKPWIYATSNLASGVPARFSGSGSGTSYSLTISRVEAEDAATYYCQQWSSNPYTFGGGTKLEIKR
Ec FmlHLD
  EC50: 0.018 µg/mL
Ec FimHLD
  EC50: 0.0135 µg/mL
Kp FimHLD
  EC50: 0.0161 µg/mL

B6: Kp1 2E02 (antibody, V domains shown)
VH: EVQLQQSGPVLVKPGPSVKISCKASGFTFTDYYIHWVKRSHGKSLEWIGLVSPYNGGTFYNQKFKGKATLTVDTSSNTAYMELTSLTSEDSAVYYCARLGVNWYFDVWGTGTTVTVSS
VL: B2 VL with I21L, Y32S, N33T, R93S, W97Y
Ec FmlHLD
  EC50: 0.0097 µg/mL
Ec FimHLD
  EC50: 0.0127 µg/mL
Kp FimHLD
  EC50: 0.0127 µg/mL

B7: Kp 2H07 (antibody, V domains shown)
VH: EVQLQQSGPVLVKPGPSVNISCKASGFTFTDYYIHWVKQSHGKSLEWIGLVYPYSGGTYYNQKFKGKATLTVDASSSTAYMELGSLTSEDSAVYYCARLGDNFYYFDYWGQGTTLTVSS
VL: B2 VL with A9T, Y32S, T94S, W97Y
Ec FmlHLD
  EC50: 2.72 µg/mL
Ec FimHLD
  EC50: 0.0104 µg/mL
Kp FimHLD
  EC50: 0.0137 µg/mL

B8: Kp1 1B03 (antibody, V domains shown)
VH: EVQLQQSGAELVKPGASVKLSCKASGYTFTSYWMHWVQQRPGQGLEWIGLIHPIGGGTHYNEKFKNKATLTVDKSSSTAYMQLSSLTSEDSAVYYCARLGTGPYYFDYWGQGTTLTVSS
VL: B2 VL with Y32S, N33T, H35D, I49V, R93S, T94S
Ec FmlHLD
  EC50: 3.06 µg/mL
Ec FimHLD
  EC50: 0.0092 µg/mL
Kp FimHLD
  EC50: 0.0125 µg/mL

B9: Kp 1E07 (antibody, V domains shown)
VH: B5 VH
VL: B5 VL
Ec FmlHLD
  EC50: 0.0117 µg/mL
Ec FimHLD
  EC50: 0.0094 µg/mL
Kp FimHLD
  EC50: 0.0115 µg/mL

B10: Ec1 F7 (Fab, V domains shown)
VH: B4 VH
VL: B2 VL with S30G, Y32S, R93S, W97Y
FimGNTEH [1]
  Kd: 0.7 nM
FimGnteH [2]
  Kd: 0.7 nM

B11: Kp 2D10 (antibody, V domains shown)
VH: EVQLQQSGAELVKPGASVKLSCKASGYTFTTYWMHWMKQWPGQGLEWIGLIHPNSGSTYYNEKFKSKATLTVDKSSSTAYMQLSSLTSEDSAVYYCARFEELWGGYWYFDVWGTGTTVTVSS
VL: B2 VL with Y32S, R93S, T94S, W97Y
Ec FmlHLD
  EC50: 10.1 µg/mL
Ec FimHLD
  EC50: 0.0119 µg/mL
Kp FimHLD
  EC50: 0.0109 µg/mL

B12: Ec H9 (antibody, V domains shown)
VH: B4 VH with P7S, I34V, T97A
VL: B2 VL with Y32S, N33T, S64G, R93S, W97Y
Ec FmlHLD
  EC50: 0.015 µg/mL
Ec FimHLD
  EC50: 0.0301 µg/mL
Kp FimHLD
  EC50: 0.0243 µg/mL

B13: Kp2 2C07 (Fab, V domains shown)
VH: EVKLVESGEGLVKPGGSLKLSCAASGFTFSSYAMSWVRQTPEKRLDWVAYISSGGDHIYYADTVKGRFTISRDNARNTLYLQMSSLKSEDTAMYYCTRDTGYYVSRYFDVWGTGTTVTVSS
VL: DIVMTQSQKFMSTSVGDRVSVTCKASQNVVTNVAWYQQKSGQSPKVVIYSASFRSSGVPDRFTGSGSGTDFTLTISNVQSEDLAEYFCHQYNSHPLTFGGGTKLEIKR
FimGNTEH [1]
  Kd: 9.9 nM
FimGnteH [2]
  Kd: 9.9 nM

B14: Kp1 2H04 (antibody, V domains shown)
VH: EVQLQQSGAELVKPGASVKLSCKASGYTFTSYWMHWVKQRPGQGLEWIGLIHPNSSSTYYNEKFKTRATLTVDKSSSTAYMQLSSLTSEDSAVYYCARLGYGNSYWYFDVWGTGTTVTVSS
VL: B2 VL with Y32S, V61I, M79L, T94S
Ec FmlHLD
  EC50: 0.0154 µg/mL
Ec FimHLD
  EC50: 0.0178 µg/mL
Kp FimHLD
  EC50: 0.0096 µg/mL

B15: Kp1 1A02 (antibody, V domains shown)
VH: EVQLQQSGPVLVKPGPSMKISCKASGFTFTDYYIHWVRQSHGKSLEWIGLVSPYNGGTYYNQKFKGKATLTVDSSSSTAYMELSSLTSEDSAVYYCARLGYYGDWYYFDYWGQGTPLTVSS
VL: B2 VL with A13T, Y32S, H35N, R93S, T94S, W97Y
Ec FmlHLD
  EC50: 2.1 µg/mL
Ec FimHLD
  EC50: 0.0144 µg/mL
Kp FimHLD
  EC50: 0.0185 µg/mL

B16: Ec1 F7 Fab (Fab, V domains shown)
VH: B4 VH
VL: B2 VL with S30G, Y32S, R93S, W97Y
[3]
  koff: 2.2e-05 s⁻¹
[4]
  koff: 2.2e-05 s⁻¹

B17: Kp1 2H04 Fab (Fab, V domains shown)
VH: B14 VH
VL: B2 VL with Y32S, V61I, M79L, T94S
[3]
  koff: 2.1e-05 s⁻¹
[5]
  koff: 2.1e-05 s⁻¹
